This note sets out measurements from article doi:10.1101/2024.11.29.625639.

The test deals with HCMV gHgLgO trimer with gO249 mutant, from virions (human cytomegalovirus, strain TB40/E (TB40-BAC4)). The experiment in a line: co-IP + pull-down.

Turning to “HCMV glycoprotein gB, from virions (natural protein)”, the fold change of the interaction with gB against gHgLgOWT was found to be 4 fold.
